Values quoted from earlier work, collected in publication PMC5725453.

Biological target: PI4KB (Homo sapiens) (UniProt Q9UBF8)
UniProt Q9UBF8, sequence (Q9UBF8 2-816): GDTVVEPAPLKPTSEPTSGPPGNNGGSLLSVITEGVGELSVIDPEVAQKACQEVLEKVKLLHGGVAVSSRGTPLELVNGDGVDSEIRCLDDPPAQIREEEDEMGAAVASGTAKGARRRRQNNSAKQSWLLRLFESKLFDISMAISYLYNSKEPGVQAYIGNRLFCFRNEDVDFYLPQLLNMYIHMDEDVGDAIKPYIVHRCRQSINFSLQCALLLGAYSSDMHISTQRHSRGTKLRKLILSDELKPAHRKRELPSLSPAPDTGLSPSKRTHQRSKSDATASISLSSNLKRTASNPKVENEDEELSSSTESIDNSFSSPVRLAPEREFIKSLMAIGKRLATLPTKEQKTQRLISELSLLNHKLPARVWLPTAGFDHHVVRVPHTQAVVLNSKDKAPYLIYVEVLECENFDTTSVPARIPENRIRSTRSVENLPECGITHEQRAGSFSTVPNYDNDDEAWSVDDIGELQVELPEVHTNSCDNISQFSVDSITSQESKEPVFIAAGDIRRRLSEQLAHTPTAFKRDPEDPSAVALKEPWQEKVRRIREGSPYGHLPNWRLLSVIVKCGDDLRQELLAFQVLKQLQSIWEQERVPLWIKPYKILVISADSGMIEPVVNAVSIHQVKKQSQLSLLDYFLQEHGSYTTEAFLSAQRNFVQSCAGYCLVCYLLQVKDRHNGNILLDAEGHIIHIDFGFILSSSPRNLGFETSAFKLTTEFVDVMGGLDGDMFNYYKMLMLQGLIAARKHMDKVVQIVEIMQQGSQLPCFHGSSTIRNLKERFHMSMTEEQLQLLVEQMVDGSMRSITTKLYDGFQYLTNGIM

Question: With ACBD3 (from UniProt Q9H3P7) as the substance, how does the Kd read?
Answer: Its Kd is 320 nM.
